Here are results for 22 sequences from the DeepSol protein solubility set.

This series in a line: soluble on expression in E. coli; label from the status in PepcDB or PDB records.
Turning to “MIKEFCAENLTLLPTLDAGQVSRVELCDNLAVGGTTPSYGVIKEACQLLHDKKISVATMIRPRGGDFVYNDLELKAMEEDILKAVEAGSDALVLGLLTTENQLDTDAIEQLLPATQGLPLVFHMAFDHIPTDHQHQALDQLIDYGFVRVLTHGSPEATPITDNVEQLKSLVTYANKRIEIMIGGGVTAENCQNLSQLTGTAIVHGTKIILEHHHHHH”, the “soluble on expression in E. coli” value is “soluble”.

For the sequence “MIKFYQYKNCTTCKKAAKFLDEYGVSYEPIDIVQHTPTINEFKTIIANTGVEINKLFNTHGAKYRELDLKNKLQTLSDDEKLELLSSDGMLVKRPLAVMGDKITLGFKEDQYKETW”, the “soluble on expression in E. coli” value is “soluble”.

On to “MIKIAPSILSADFSKLGEEIKDVEKGGADYIHVDVMDGHFVPNITIGPLIVEAIRPITSLPLDVHLMIENPDNYIPTFAKAGADIITVHVEACPHLHRTIQLIKSHGIKAGVVLNPHTPVSVIEHVLEDIDMVLLMTVNPGFGGQKFIHSVLPKIKQVAEMVKERNLEVEIEVDGGVNAETARLCVEAGANVLVAGSAVYNQKDRGEAIRVIRG”, for which the “soluble on expression in E. coli” value is given as “soluble”.

Take “MIKISTRFDAGSVVVKDLTDPSNIRLALRPDNASDFAQWFYFRLQGAAYQNCIMHFENAAEAAYPKGWEGYQACASYDRRNWFRVPTSYENGVLTVNHTPLSNSVYYAYFEPYSEEQHLNLLGDAQGSGLCRIDDLGSTVQGRDINLLTIGNQVESDLKIWITARQHPGETMAEWFIEGLLGRLLDPQDPTARALLDRATFYIVPNMNPDGSALGNLRTNAAGANLNREWENPTVEKSPEVFFVREKMLETGVDLFLDIHGDEGLPFVFVAGTEGVPNYNPRIAALEAQFKNALLNASPDFQDEYGYEKDAPGEANMTLATNWVGNRFNCLAYTLEMPFKDNANLPDDDFGWNGQRSLRLGEAALSAILNVIGDLR”: the “soluble on expression in E. coli” value is on record as “not soluble”.

For the sequence “MIKISYSPYTLKPVQSLNAATAATAREGVLLKVEWNDGLYGFADLHPWPELGDLSLEEQLSDLRMGRMTTQIEQSIWLARRDALLRKEKKHVFDGGEKIKNNYLLSHFQDLKPGFLDGLKNEGYNTVKVKMGRDLQKEADMLTHIAASGMRMRLDFNALGSWQTFEKFMVNLPLTVRPLIEYVEDPFPFDFHAWGEARKLAKIALDNQYDKVPWGKIASAPFDVIVIKPAKTDVDKAVAQCQKWNLKLAVTSYMDHPVGVVHAVGVAMELKDKYGDMILESGCLTHRLYQMDSFAAELSTQGPYLLKNKGTGVGFDKLLEALTWYQLKVR”, the “soluble on expression in E. coli” value was “soluble”.

For the sequence “MIKLKTPNSMEIAEQPAVITYVPELNAFRGKFLGLSGYCDFVSDSIQGLQKEGELSLREYLEDCKAAGIEPYARTEKIKTFTLRYPESLSERLNNAAAQQQVSVNTYIIETLNERLNHL”, the “soluble on expression in E. coli” value is “not soluble”.

“MIKLVRIDYRLLHGQVVFAWTRALDIDHIIVANANAAGDAFVSMSLSLAKPAGVSLDIITVEQAAEKLASGKLDHKKVMVVLGNTAETLAFVEKVPGISVINYGGIAQKEGAQQFGKAIYLTEQEIADSQALKAKGIRLEMRQVPAHSAELLNDKL”: the “soluble on expression in E. coli” value is on record as “not soluble”.

Turning to “MIKMGRSEMKIASAELRELMKAVSEGHYETVNTILDKDPELVNQYAPPTYDSPLARVLNKKHIDYKMLDILVKHHVDFDYPINYHKETPIELACKNQDLQLFKYLVQHNAPISEQAPHFLLVNSTNIKYLTEDKIKNTCEIIKLMGGLEAVSSKCDAEGNRFGEQARKSQLINRFGGIVKYDYMQLLQSVYPIVDREVDAPTIHGSTEVLTNLLNKIRGQFSSKETYDQQNLKDSISLFFMTGGEIPPSRKVPESRFEEAGIDTPKNAL”, the “soluble on expression in E. coli” value is on record as “not soluble”.

In the case of “MIKSALLVLEDGTQFHGRAIGATGSAVGEVVFNTSMTGYQEILTDPSYSRQIVTLTYPHIGNVGTNDADEESSQVHAQGLVIRDLPLIASNFRNTEDLSSYLKRHNIVAIADIDTRKLTRLLREKGAQNGCIIAGDNPDAALALEKARAFPGLNGMDLAKEVTTAEAYSWTQGSWTLTGGLPEAKKEDELPFHVVAYDFGAKRNILRMLVDRGCRLTIVPAQTSAEDVLKMNPDGIFLSNGPGDPAPDDYAITAIQKFLETDIPVFGICLGHQLLALASGAKTVKMKFGHHGGNHPVKDVEKNVVMITAQNHGFAVDEATLPANLRVTHKSLFDGTLQGIHRTDKPAFSFQGHPEASPGPHDAAPLFDHFIELIEQYRKTAK”, the “soluble on expression in E. coli” value was “soluble”.

As to “MIKSSSKIGLAFFVRPQFDVDLAKNFFNKVQDSLKEAGIATQVFELPVSTDAEALSLAESVNSHQDLHGLIVVQGTFCDASLILNLASNINLPIMIWATKEQPTGGRLSLNSFCGLNLGAHTLVNAGIKFKGVYGSPGSPAVIKKVTSFARAAGAVKWLKGKRIGLFGHRPSGYYPSNFNEILLRKQFGITVEYLSLSEVFSLAQKMEIKDIQPFINTLVGVEGLEMVSTSKSVQAYLALKELIAQKALDAVAVECWPEFMAGFGGAVCYALSRLNDEGIVAACEADVNGAVTMLLGSYLSSQANFIADLVGAEEEQNQLIFWHCGNGPLSLAAPGTNPVAGVHPNRKTPLAMYFPLKGGPVTVSRLSSDHNGNLRLFLGSGTGIETDLLYSGNSLPIQISGSVEETLDTILCEGIEHHYIVTYGDLTSEFREIAELLGLRMITF”, the “soluble on expression in E. coli” value is reported as “not soluble”.

On to “MIKSYKIRGTSLTVNRSDSYPDACNWTADSFGMLFYDPEYDLSTESLSITLDAGNDWVPEGGLVYESLPVKVTYENPEMMDYGTDWFNQGYSALGWNGEEYAYLGTDRGIVNILLEEDEKILYPNEEYDLKEGYTLKVTDLASDKACLTLSRNKLPVYSSIISPGKSADLGTHTFLYKKELNGVEVPLFSVYVDSVIQGDELSAVNLKHLLHFSDSPLELNYGKEYGELTIVETYPKLRLENKHVVWSGSDINVTEDIWIGRFEKKTAGNLFVLEHHHHHH”, for which the “soluble on expression in E. coli” value is “soluble”.

In the case of “MIKTVVGSYPVVKGKPDSIPDKIKKFFGKYDKYEYSIKKALDDQLNVGIDILSDGQVRGDMVEIFVSNMYGFEGRRVVNRVEFVKPITLNDIKYSLKYISKKDPEKGVKGIITGACTLASSIRVENYYSDNKDENLIYDLAGALNKEALSIQNHVKMIQFDEPILSTGLYDLEVAKKAMDIITSGINVPVAMHVCGDVSKIFYKLNEFNVDILDHEFASCRKNLEILNEITKKVGFGCINTKLKSVDSVDEVKALISEGIEILKNNSKFEGSINDSVIIDPDCGMRLLPVDVAYSKLNNMVTAANEIEKDLILEHHHHHH”, the “soluble on expression in E. coli” value was “not soluble”.

Consider “MILITLLKDGVGEKMRIVFDLGGSVVMPKEGAKAEKIMEYANIFKKIKDEGHEVAIVVGGGKTAREYIEIGRELGASESFCDELGIMATRMNAMILITALGDYSIKKVPTSFEEAELILNLGKIPVMGGTHPGHTTDAVAASLAEFINADLLVIGTNVDGVYDKDPNKYEDAKKFDKMSAKELVDLAISSSLKAGSSSVVDLLAAKIIERAKLKVAVVKGTPEELLNVSKGIINGTIIEG”, for which the “soluble on expression in E. coli” value was “soluble”.

For “MILLPLHCGHVPCFPPLELPVTHVAVIGAGFSGLAAALRLAQAGAQVTVLDALDRPGGKAALGYDDFSSGPTVVTMPQIFAALHARLGWDAPALTPAHPTTTYHALSGRTFAPEALNVVGSLDPTMTQLSRAEGRRYRQLLFAARQMYSGAADTFLFAPPPTRTQLAQYALRAGRQAAPLTPLARYVRSGPFLTPFWLRFATYLGADPYRAPAVLHNIAWVELGDGIWHLPGGLLALAERLYAEALDRGVRFEFGIQVQHLSTHGGRVLGAHTSRGAFAADRWVSAADRALTLGWLGQDTPTTPRGVSGFALQLRLGEDLGQGHHIFWPADYAREWQDIRAGRLPSEPTLYLHLDGPRAFLLVNAPPDPRLGLSPERKADYARHLLQRLQSRFPLPVVEWQALAPADYARTGLGGALYGRAPHGLLGSLRPGWRLPQARNLVQVGGTVHPGGGVPLSLLSGWNGAGSLLGLDYDSLDGEKAFGKPAPAIKLEHHHHHH”, the “soluble on expression in E. coli” value is recorded as “not soluble”.

Turning to “MILPPIPTPFDREGRLDEEAFRELAQALEPLVDGLLVYGSNGEGVHLTPEERARGLRALRPRKPFLVGLMEETLPQAEGALLEAKAAGAMALLATPPRYYHGSLGAGLLRYYEALAEKMPLFLYHVPQNTKVDLPLEAVEALAPHPNVLGIKDSSGDLSRIAFYQARLQEFRVYTGHAPTFLGALALGAEGGILAAANLAPRAYRALLDHFREGRLAEAQELQKKLFPLGDLLAKGGVPLLKQALRHLGLPAGYPRPPYPAESPLWERFLPVLEGLKEEGWVL”, the “soluble on expression in E. coli” value was “soluble”.

Turning to “MILTEQEKAEVEANRRRYEQHKALGQQQAPKALPPPTPRDGAPIAPESIIHRETVPGGWYYVTKLGRGEAVRIINTSGTSCVSIQAWNALDPSERLNHADTIKVQWAASLRKGRVILSDMGRALLSIIEDTSGAHDTMVGGSNAATNAERYGVGSFRNARDNFVLAAGKLGLDRRDVHPSIALFAPVAVDSQGRFEWHGERRHKGDFVDLRAELDLLIAVSNCPHPLDPSPSYAPGDIELIRYQAPQPASDDLCRTVSLEAKRAFENNAFYLAGAAGRALEHHHHHH”, the “soluble on expression in E. coli” value is listed as “soluble”.

Take “MILVVDNYDSFTYNLVDIVAQHTDVIVQYPDDDNVLNQSVDAVIISPGPGHPLDDQQLMKIISTYQHKPILGICLGAQALTCYYGGEVIKGDKVMHGKVDTLKVISHHQHLLYQDIPEQFSIMRYHSLISNPDNFPEELKITGRTKDCIQSFEHKERPHYGIQYHPESFATDYGVKIITNFINLVKEG”: the “soluble on expression in E. coli” value is “not soluble”.

In the case of “MIMATLVITIGNDDCVNEGINIICNQCRPIYMNEDNKIIVNVVGEEKFGAGHNAEYITKQVDKHLGIIRDYIIEGLTDCYVEYDENGKEIFIPKTK”, the “soluble on expression in E. coli” value was “not soluble”.

Regarding “MIMSKIKLTKNDLKKQKDELKMFKRYLPTLQLKKQQLYMEIVKIENSYKIKNLEQQKLKENISNWISLFSEKFPFESWIQVKTVVKKSLNIAGVAIPIFDSIEYEDIRHDLLFTPYWVDKGIEILKVVIQIDVELKILKKQIDLLLREFRITSQRVNLFEKVMIPTAKANIKKINIYLGDQQTAAVVRGKIAKSSLIKKNRNSLLEHHHHHH”, the “soluble on expression in E. coli” value is “not soluble”.

For “MINLTNLASSLARVALSDSTKPTIDRAMNVVSHIAGKVALQVNSSLLEQKGRLNERQQKGLEVILDALLGKEPVTHVETHEGGGRFNLARAAFDVASVVWERDQSMRNVMSFLGINDSKGNLLFSLGKTLADAMARPEPENGKHNSEANYAFFSSNLKLNKLMNDIADQVINEIRQQNTDRVRRPTPGPSWRPESTQQQARPQTPPSARPQANSAPPPPKAQPDAGAQRPSTERPPKTTPTGASAKVDDSAPAKPPVKQLYEHLGLSDMTADLSAVKKAYKKAALKYHPDKNAGNVAEANERFKKISNAFRILSDPELRTKYDNGVIDENG”, the “soluble on expression in E. coli” value was “not soluble”.

As to “MIPATLHQLKVFETTARHGSFTKAAEELSITQPTVSGQVKQLTQTIGMPLFEHIGRKLYLTEAGEELLATCQEIFERLDNFEMKLAALQGAKRGQLRLGVITTTKYFVPRILGEFCQDYPDIDVSLQVINHQQLHDRMADNLDDLYILSNLPDDLDVHAQAFLDNPLVVVARADHPLAHQKNLPLSVLDGADFVTREMGSGTRLAVEKLLAEHDVSVQVRLELGSNEAIKQAIAGGLGISVLSRHTLITEPPHGELTVLDVEHFPIQRHWYVAYLAGKQLSVIAQAFLEFMVRSSQKTLENSGRRSLALQP”, the “soluble on expression in E. coli” value is reported as “not soluble”.

For “MIPKQLSEAEAAVVLNLTVSQVRRLRHKGKLGYTPGRPPRIGEDDIEAYLRAVKRRPTLPPPTEPPTPVIEKDSYADIQRRVREKRLKLRLRSSQRSLG”, the “soluble on expression in E. coli” value is “not soluble”.
